Values quoted from earlier work, collected in US20260265800A1, “NEW FUCOSYLTRANSFERASES FOR IN VIVO SYNTHESIS OF LNFP-III” (DSM IP Assets B.V., priority 2022, published 2026).
Where a chain is given by its changes, count along the chain named.

B1: PglpA_70UTR: promoter sequence, SEQ ID NO: 26 (nucleic acid)
DNA: GAAAACATTCATAAATTAAATGTGAATTGCCGCACACATTATTAAATAAGATTTACAAAATGTTCAAAATGACGCATGAAATCACGTTTCACTTTCGAATTATGAGCGAATATGCGCGATGCCTACAAGCATCGTGGAGGTCCGTGACTTTCACGCATACAACAAACATTAACCAAGGAGGAAACAGCT
B2: PglpA_16UTR: promoter sequence, SEQ ID NO: 36 (nucleic acid)
DNA: B1 DNA
B3: PmglB_16UTR: promoter sequence, SEQ ID NO: 32 (nucleic acid)
DNA: TGCGTCGCCATTCTGTCGCAACACGCCAGAATGCGGCGGCGATCACTAACTCAACAAATCAGGCGATGTAACCGCTTTCAATCTGTGAGTGATTTCACAGTATCTTAACAATGTGATAGCTATGATTGCACCGTTTTAACGTTGTAACCCGTATGTAACAGTGAATAATCACTTTTGCCGAGGTAACAGCGTCATAACAACAATTAAAGCCGTTTTCTGGAGCGTTACCGGGCATGGAAGAACGAATTTTAAAAAGTGAGCTTCGGCGTTCAGTAACACTTCATTAACTCTACTGCCCCGCCGAGCATTTATCTCAAGCACTACCCTGCATAAGCAAGGAGGAAACAGCT
B4: PglpF_SD4: promoter sequence, SEQ ID NO: 23 (nucleic acid)
DNA: ATGCGCAAATGCGGCACGCCTTGCAGATTACGGTTTGCCACACTTTTCATCCTTCTCCTGGTGACATAATCCACATCAATCGAAAATGTTAATAAATTTGTTGCGCGAATGATCTAACAAACATGCATCATGTACAATCAGATGGAATAAATGGCGCGATAACGCTCATTTTATGACGAGGCACACACATTTTAAGTTCGATATTTCTCGTTTTTGCTCGTTAACGATAAGTTTACAGCATGCCTACAAGCATCGTGGAGGTCCGTGACTTTCACGCATACAACAAACATTAACCAACTAGGAAACAGCT
B5: PglpF_SD5: promoter sequence, SEQ ID NO: 30 (nucleic acid)
DNA: B4 DNA with T299C, A300G, G301A
B6: PglpF_SD9: promoter sequence, SEQ ID NO: 33 (nucleic acid)
DNA: B4 DNA with C298A, T299G, A300G, G301A, G302A
B7: PglpF_SD10: promoter sequence, SEQ ID NO: 29 (nucleic acid)
DNA: B4 DNA with A300G, G301A
B8: PglpF_SD8: promoter sequence, SEQ ID NO: 31 (nucleic acid)
DNA: B4 DNA with C298G, T299A, A300G, G301A, G302A
B9: PglpF_SD6: promoter sequence, SEQ ID NO: 35 (nucleic acid)
DNA: B4 DNA with C298G, T299A, A300G, G301C, G302T
B10: PmglB_70UTR_SD9: promoter sequence, SEQ ID NO: 20 (nucleic acid)
DNA: TGCGTCGCCATTCTGTCGCAACACGCCAGAATGCGGCGGCGATCACTAACTCAACAAATCAGGCGATGTAACCGCTTTCAATCTGTGAGTGATTTCACAGTATCTTAACAATGTGATAGCTATGATTGCACCGTGCCTACAAGCATCGTGGAGGTCCGTGACTTTCACGCATACAACAAACATTAACCAAAGGAAAAACAGCT
B11: PmglB_70UTR_SD5: promoter sequence, SEQ ID NO: 22 (nucleic acid)
DNA: B10 DNA with A191C, G192C, A195G
B12: PmglB_70UTR_SD4: promoter sequence, SEQ ID NO: 21 (nucleic acid)
DNA: B10 DNA with A191C, G192T, G193A, A194G, A195G
B13: PmglB_70UTR_SD7: promoter sequence, SEQ ID NO: 24 (nucleic acid)
DNA: B10 DNA with A191G, G192A, A194C
B14: PmglB_70UTR: promoter sequence, SEQ ID NO: 25 (nucleic acid)
DNA: B10 DNA with A191G, G193A, A194G, A195G
B15: PglpT_70UTR: promoter sequence, SEQ ID NO: 27 (nucleic acid)
DNA: CCATTTAGCCATAGTAAAAACATGAATTGTTTGATTTCGCGCATATTCGCTCATAATTCGAAAGTGAAACGTGATTTCATGCGTCATTTTGAACATTTTGTAAATCTTATTTAATAATGTGTGCGGCAATTCACATTTAATTTATGAATGTTTTCTTAACATCGCGGCATGCCTACAAGCATCGTGGAGGTCCGTGACTTTCACGCATACAACAAACATTAACCAAGGAGGAAACAGCT
B16: PglpF_SD7: promoter sequence, SEQ ID NO: 34 (nucleic acid)
DNA: GCGGCACGCCTTGCAGATTACGGTTTGCCACACTTTTCATCCTTCTCCTGGTGACATAATCCACATCAATCGAAAATGTTAATAAATTTGTTGCGCGAATGATCTAACAAACATGCATCATGTACAATCAGATGGAATAAATGGCGCGATAACGCTCATTTTATGACGAGGCACACACATTTTAAGTTCGATATTTCTCGTTTTTGCTCGTTAACGATAAGTTTACAGCATGCCTACAAGCATCGTGGAGGTCCGTGACTTTCACGCATACAACAAACATTAACCAAGAGCAAAACAGCT
B17: PglpF_SD1: promoter sequence, SEQ ID NO: 39 (nucleic acid)
DNA: B16 DNA with G288A, A289T, G290T, A292G
B18: PglpF_SD3: promoter sequence, SEQ ID NO: 38 (nucleic acid)
DNA: B16 DNA with G290A

tested on: β-galactosidase activity; settings: LacZ assay, PglpF as positive reference; a range indicates results from multiple assays; cited from earlier work

Molecule | % Activity relative to PglpF
B1 | 102-179%
B2 | 38-64%
B3 | 78-171%
B4 | 140-161%
B5 | 82-91%
B6 | 73-93%
B7 | 88-96%
B8 | 81-82%
B9 | 46-47%
B10 | 180-226%
B11 | 146-152%
B12 | 153%-353%
B13 | 127-173%
B14 | 124-234%
B15 | 102-240%
B16 | 47-57%
B17 | 5%
B18 | 9%

same assay, conditions: LacZ assay; cited from earlier work

Molecule | Strength
B1 | high (A regulatory element with an activity above 10,000 MU is considered strong)
B2 | middle (what is in between has intermediate strength)
B3 | high (A regulatory element with an activity above 10,000 MU is considered strong)
B4 | high (A regulatory element with an activity above 10,000 MU is considered strong)
B5 | high (A regulatory element with an activity above 10,000 MU is considered strong)
B6 | middle (what is in between has intermediate strength)
B7 | high (A regulatory element with an activity above 10,000 MU is considered strong)
B8 | high (A regulatory element with an activity above 10,000 MU is considered strong)
B9 | middle (what is in between has intermediate strength)
B10 | high (A regulatory element with an activity above 10,000 MU is considered strong)
B11 | high (A regulatory element with an activity above 10,000 MU is considered strong)
B12 | high (A regulatory element with an activity above 10,000 MU is considered strong)
B13 | high (A regulatory element with an activity above 10,000 MU is considered strong)
B14 | high (A regulatory element with an activity above 10,000 MU is considered strong)
B15 | high (A regulatory element with an activity above 10,000 MU is considered strong)
B16 | middle (what is in between has intermediate strength)
B17 | low (a regulatory element with an activity below 3,000 MU is considered weak)
B18 | low (a regulatory element with an activity below 3,000 MU is considered weak)
